assay: yeast display, Sf9 membrane polyspecificity reagent, FACS + sequencing; frameworks hold sequencing errors
In short: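 After 36–48 hours of galactose induction, yeast (Saccharomyces cerevisiae BJ5465) displaying a synthetic nanobody library were stained at 4 °C for 1 hour with 10% biotinylated, detergent-solubilized Sf9 membrane reagent. Streptavidin microbeads enriched the stained cells before FACS sorting into low and high (top ~1%) gates on anti-HA and streptavidin fluorescence. Each clone's polyreactivity label reflects its gate of origin.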

Sequence | polyreactivity (PSR sort gate)
QVQLVESGGGLVQAGGSLRLSCAASGFTFGYYGMGWYRQATGKEMELVAAIDCSGASTYYADSVKGRFTISRDNAKNTVDLQINSLKPEDSAVYYCNADRYLYSLYTYEYDYWGHGTQVTVSS | low polyreactivity
QVQLVESGGGLVQAGGSLRLSCAASGFTFHGYAMGWYRQAPGKERELVAAIRSGDRTYYADSVKGRFTISRDNAKNTVYLQMNSLKPEDTAVYYCAVVYGYLYRYSAKYDYWGQGTQVTVSS | low polyreactivity
QVQLVESGGGLVQAGGSLRLSCAASGFTFHKNAMGWYRQAPGKERELVAGISRRAGSTYYADSVKGRFTISRDNAKNTVYLQMNSLKPEDTAVYYCATDRARTGALYYWGQGTQVTVSS | high polyreactivity
QVQLVESGGGLVQAGGSLRLSCAASGFTFHKYAMGWYRQAPGKERELVAAITSSGGSTYYADSVKGRFTISRDNAKNTVYLQMNSLKPEDTAVYYCNARGGGRKSYDYWGQGTQVTVSS | high polyreactivity
QVQLVESGGGLVQAGGSLRLSCAASGFTFHRNAMGWYRQAPGKERELVAAISTRGGSTAYADSVKGRFTISRDNAKNTVYLQMNSLKPEDTAVYYCNTRYVGQRSTWVDQVRRYDYWGQGTQVTVSS | high polyreactivity
QVQLVESGGGLVQAGGSLRLSCAASGFTFHRNAMGWYRQAPGKERELVAAISTRGGSTAYADSVKGRFTISRDTAKNNVYLQMNSLKPEDTAVYYCNTRYVGQRSTWVDQVRRYDYWGQGTQVTVSS | high polyreactivity
QVQLVESGGGLVQAGGSLRLSCAASGFTFHWNAMGWYRPAPGKERELVAVITSGGSTNYADSVKGRFTISRDNAKNTVYLQMNSLKPEDTAVYYCAKEDGYSQLKTTFDEPGYGSWGQGTQVTVSS | low polyreactivity
QVQLVESGGGLVQAGGSLRLSCAASGFTFHYYAMGWYRQAPGKERELVAAISRGGGNTYYADSVKGRFTISRDNAKNTVYLQMNSLKPEDTAVYYCAADSKYRFSHGLDYWGQGTQVTVSS | high polyreactivity
QVQLVESGGGLVQAGGSLRLSCAASGFTFIPNAMGWYRQAPGKERELVADITWSGGTTYYADSVKGRFTISRDNAKNTVYFQMNSLKPEDTAVYYCNADYLFYAFDYWGQGTQVTVSS | low polyreactivity
QVQLVESGGGLVQAGGSLRLSCAASGFTFISNAMGWYRQAPGKERELVAAISSAGGRTYYADSVKGRFTISRATAKITVYLQMNTLKPEDTEVYYSNADRSLLYSRKIEYDSWGQGTQVTVSS | low polyreactivity
QVQLVESGGGLVQAGGSLRLSCAASGFTFIYYAMGWYRQAPGKERELVAAIRWSGGSTYYADSVKGRFTISRDNAKNTVYLQMNSLKPEDTAVYYCAASWYWFAQKRVYYWGQGTQVTVSS | high polyreactivity
QVQLVESGGGLVQAGGSLRLSCAASGFTFIYYAMGWYRQAPGKERELVAAITSGGNTYYADSVKGRFTISRDNAKNTVYFQMNSLKPEDTAVYYCNKVPHREWVGGYDYWGQGTQVTVSS | low polyreactivity
QVQLVESGGGLVQAGGSLRLSCAASGFTFKGNAMGWKRPAPGKERELVAGISRSGRTYYADSVKGRFTISRDNAKNTVYLQMNSLKPEDTAVYYCNVVYTYWRYYRWREYDYWGQGTQVTVSS | high polyreactivity
QVQLVESGGGLVQAGGSLRLSCAASGFTFKKNAMGWYRPAPGKERELVAAISRSGGITYYADSVKGRFTISRDNAKNTVYLQMNSLKPEDTAVSYCATQTYRTPAYPAYGYWGQGTQVTVSS | high polyreactivity
QVQLVESGGGLVQAGGSLRLSCAASGFTFKLYAMGWYRQAPGKERELVAAISSSGGRTYYADSVKGRFTISRDNAKYNVYLQMNSLKPEDTAVYYCNAVRTVNDYHYDYWGQGTQVTVSS | high polyreactivity
QVQLVESGGGLVQAGGSLRLSCAASGFTFKPYTMGWYRQAPGKERELVAAISRSGGSTYYADSVKGRFTISRDNAKNTVYLQMNSLKPEDTAVYYCAKRGNSWYLGGSWGQGTQVTVSS | high polyreactivity
QVQLVESGGGLVQAGGSLRLSCAASGFTFKRNGMGWYRQAPGKERELVAAISSSGGNTYYADSVKGRFTISRDNAKNTVYLQMNSLKPEDTAVYDCAAASRYFDRDYWGQGTQVTVSS | high polyreactivity
QVQLVESGGGLVQAGGSLRLSCAASGFTFKRYAMGWYRQAPGKERELVAAISYGGSRTYYADSVKGRFTISRDNAKNTVYLQMNSLKPEDTAVYYCNFRRRTWHYITSMDYWGQGTQVTVSS | high polyreactivity
QVQLVESGGGLVQAGGSLRLSCAASGFTFKRYAMGWYRQARGKERELVAAISWSGSSTYYADSVKGRFTISRDNAKNTVYLQMNSLKPEDTAVYYCAARSFRPAYDYWGQGTQVTVSS | high polyreactivity
QVQLVESGGGLVQAGGSLRLSCAASGFTFKSYAMGWYRPAPGKERELVAGITRTGVSTYYADSVKGRFTISRDNAKNTVYLLMNSLKPEDTAVYYCAAGIRHIYQSYAFYKFDYWGQGTQVTVSS | high polyreactivity
QVQLVESGGGLVQAGGSLRLSCAASGFTFKVYAMGWYRQAPGKERELVAAISKSGGSTYYADSVKGRFTISRDNAMNTVYLQMNSLKPEDTAVDYCATGGYAYVYPYDYWGQGTQVTVSS | low polyreactivity
QVQLVESGGGLVQAGGSLRLSCAASGFTFKWYTMGWYRQAPGKERELVAGISRRGGSTYYADSVKGRFTISRDNAKNTFYLQMNSLKPEDTAVYYCAADSKLTKFYYWGQGTQVTVSS | high polyreactivity

Sequence | polyreactivity (PSR sort gate)
QVQLVESGGGLVQAGGSLRLSCAASGFTFKWYTMGWYRQAPGKERELVAGISRRGGSTYYADSVKGRFTISRDNAKNTVYLQMNSLKPEDTAVYYCAAEFPTVYFPWSEMDYWGQGTQVTVSS | high polyreactivity
QVQLVESGGGLVQAGGSLRLSCAASGFTFKYNAMGWYRQAPGKERELVASISSGSTNYADSVKGRFTISRDNAKNTVYLQMNSLKPEDTAVYYCSASVSRGKRFRYGYVFKMDYWGQGTQVTVSS | low polyreactivity
QVQLVESGGGLVQAGGSLRLSCAASGFTFKYYALGWYRQAPGKERELVAAIRGSGAGTYYADSVKGRFTISRDNSKNTVYLQMNSLKPEDTAVYYCNNRWTYKWDDYWGQGTQVTVSS | high polyreactivity
QVQLVESGGGLVQAGGSLRLSCAASGFTFKYYAMGWYRQAPGKERELVAAITWSGGSTYYADSVKGRFTISRDNAKNTVYLQMNSLKPEDTAVYYCNAKVYQISRYGYWGQGTQVTVSS | high polyreactivity
QVQLVESGGGLVQAGGSLRLSCAASGFTFLAYSMGWYRQAPGKERELVAAIRWSGRRTYYADSVKGRFTISRDNAKNTVYLQMNSLKPEDTAVYYCAADTRRVREYNYWGQGTQVTVSS | low polyreactivity
QVQLVESGGGLVQAGGSLRLSCAASGFTFLNYAMGWYRQAPGKERELVAAITRSGGSTYYADSVKGRFTISRDTAKNTVYLQMNSLKPEDTAVYYCAIGYYSPNYYYWGQGTQVTVSS | high polyreactivity
QVQLVESGGGLVQAGGSLRLSCAASGFTFLRYAMGWYRPAPGKERELVAVITYGGGSTYYADSVKGRFTISRDNAKNTVYLQMNSLKPEDTAVYYCALYPRRAGGDYWGQGTQVTVSS | high polyreactivity
QVQLVESGGGLVQAGGSLRLSCAASGFTFLWYGMGWYRQAPGKERELVAAISSSGGSTYYADSVKGRFTISRDNAKNTVFLQMNSLKPEDTAVYYCAVAVSNQYVRYGYWGQGTQVTVSS | low polyreactivity
QVQLVESGGGLVQAGGSLRLSCAASGFTFLYYDMGWYRQAPGKERELVAAITSSGTSTYYADSVKGRFTISRDNAKNTVYLQMNSLKPEDTAVYYCAVLYTYAGRHRYGYWGQGTQVTVSS | high polyreactivity
QVQLVESGGGLVQAGGSLRLSCAASGFTFNANAMGWYRQAPGKERELVAVITRSGGRTYYADSVKGRFTISRDNAKNTVYLQMNSLKPEDTEVYYCAKECPSRVYQGTDSASDYWGQGTQVTVSS | high polyreactivity
QVQLVESGGGLVQAGGSLRLSCAASGFTFNDNDMGWYRQAPGKEWELVAAITYGGSTYYADSVKGRFTISRENAKNTVYLQMNSLKPEDTAVYYCNVEFFFWPYEYGYWGQGTQVNVSS | low polyreactivity
QVQLVESGGGLVQAGGSLRLSCAASGFTFNDYAMGWYRQAPGKERELVAAIDWSGGRTYYADSVKGRFTISRDNAKNTVYLQMNSLKPEDTAVYYCAAVLYSRMYWYRLDYWGQGTQVTVSS | low polyreactivity
QVQLVESGGGLVQAGGSLRLSCAASGFTFNFYVMGWYRQAPGKERELVAAITSNGGSTYYADSVKGRFTISRDNAKNTVYLQMNSLKPEDTAVYYCAADQYPTWSYLPFDYWGQGTQVTVSS | high polyreactivity
QVQLVESGGGLVQAGGSLRLSCAASGFTFNGYAMGWYRQAPGKERELVAGITRRGGITYYADSVKGRFTISRDNAKNTVYLQMNSLNPEDTAVYYCNAYPRYIIPSIVNGYNYWGQGTQVTVSS | high polyreactivity
QVQLVESGGGLVQAGGSLRLSCAASGFTFNGYARGWYRQAPGKDRELVATMTNGGSTYYADSVKGRFTISRDNAKNTVYLQMNSLKPEDTAVYYCAAESEQATPGYLAPLFDYWGQGTQVTVSS | low polyreactivity
QVQLVESGGGLVQAGGSLRLSCAASGFTFNRNAMGWYRQAPGKERELVAAISWSGGSTYYADSVKGRFTLSRDNAKNTVYLQMNSLKPEETAVYYCAKGYRRVYGPFYYWGQGTQVTVSS | low polyreactivity
QVQLVESGGGLVQAGGSLRLSCAASGFTFNRYAMGWYRQAPGKERELVAAISWSGTSTYYADSVKGRFTISRDNAKNTVYLQMNSLKPEDTAVYYCATRQTHSYDYWGQGTQVTVSS | high polyreactivity
QVQLVESGGGLVQAGGSLRLSCAASGFTFNRYAMGWYRQAPGKERELVASITTGGRTNYADSVKGRFTISRDNAKNTVYLQMNSLKPEDTAVYYCAADYGYFYRYYYWGQGTQVTVSS | high polyreactivity
QVQLVESGGGLVQAGGSLRLSCAASGFTFNSYAMGWYRQAPGKERELLAAISRIGGITYYADSVKGRFTISRDNAKNTVYLQMNSLKPEDTAVYYCNTASVYVYTGRYDYWGQGTQVTVSS | high polyreactivity
QVQLVESGGGLVQAGGSLRLSCAASGFTFNSYAMGWYRQAPGKERELVAAITSSGGLTYYADSVKGRFTISRDNAKNTVYLQKNSLKPEDTAVYYCAARPGGKVATIYDYWGQGTQVTVSS | low polyreactivity
QVQLVESGGGLVQAGGSLRLSCAASGFTFNTYAMGWYRQAPGKERELVAAITTSGGSTYYADSVKGRFTISRDNAKNTVYLQMNSLKPEDTAVYSCAAKSGRGVVRGRDDYWGQGTQVTVSS | high polyreactivity
